{"source": "paper PMC3901395", "about": "“Multivalent interactions of the SUMO-interaction motifs in RING finger protein 4 determine the specificity for chains of the SUMO” (Biochemical Journal, 2013)", "key": {"[1]": {"tested_on": "mono-SUMOs and SUMO chains", "experiment": "ITC binding to mono-SUMOs and SUMO chains (general statements)", "settings": "full-length dimerized RNF4 vs SIM domain", "excerpt": "(§1) For expression in Escherichia coli, linear poly-SUMO chains were generated as described previously with slight modifications. After the combined PCR/ligation reaction, the 4×SUMO2-ΔN11 or 4×SUMO1-ΔN15 DNA polymers were separated from smaller polymers by agarose gel electrophoresis and individually extracted (Macherey–Nagel). These were then subjected to a second PCR with primers to create BamHI and XhoI restriction sites, a C-terminal GG motif and a stop codon. The resulting fragments coding for di-, tri- and tetra-SUMO2-ΔN11 or SUMO1-ΔN15 chains were amplified and cloned into pGEX-4T2. […] Each monomer in these chains is separated by RS replacing the natural GG motif. A similar strategy was used to design C-terminally GFP–HA2-tagged linear poly-SUMOs in the copper-inducible Ycplac22 vector for expression in S. cerevisiae. […]\nThe mono-SUMOs and linear poly-SUMO1 and poly-SUMO2 proteins as well as all RNF4 constructs were expressed as GST-fusion proteins from E. coli Rosetta™ 2(DE3)pLysS cells (Novagen) cultivated in LB medium with 100 μg/ml ampicillin and 30 μg/ml chloramphenicol after induction with 0.1 mM IPTG at 20°C for 12 h. […]\nBinding of peptides and proteins to SUMOs was investigated by ITC using either a VP-ITC or an ITC200 (GE Healthcare). […] Protein concentrations were determined by measuring the absorption at 280 nm. […]"}, "tetra-SUMO2–GFP–HA2": {"tested_on": "tetra-SUMO2–GFP–HA2", "experiment": "Proteasomal targeting of tetra-SUMO2–GFP–HA2 by RNF4 in yeast", "format": "cell-based, S. cerevisiae", "settings": "yeast coexpressing RNF4; Western blot, normalized to CDC11", "excerpt": "as §1, with “motif.” for “motif. A similar strategy was used to design C-terminally GFP–HA2-tagged linear poly-SUMOs in the copper-inducible Ycplac22 vector for expression in S. cerevisiae.”\n(§2) wt (wild-type) S. cerevisiae strains (JD47-13C) containing centromeric (low copy) plasmids expressing various (SUMO2)n–GFP–HA2 ([…]) fusions were grown overnight in minimal medium composed of 0.67% yeast nitrogen base with 2% raffinose as a carbon source. Cells from the overnight cultures were used to inoculate cultures with minimal media containing 2% galactose at a starting attenuance measured at 600 nm of 0.25. […] The levels of substrates and, as a loading control, levels of CDC11 were analysed by Western blotting and detection with an Odyssey infrared fluorescence imaging system (LI-COR)."}, "tri-SUMO2–GFP–HA2": {"tested_on": "tri-SUMO2–GFP–HA2", "experiment": "Proteasomal targeting of tri-SUMO2–GFP–HA2 by RNF4 in yeast", "format": "cell-based, S. cerevisiae", "settings": "yeast coexpressing RNF4; Western blot, normalized to CDC11", "excerpt": "as §1, with “motif.” for “motif. A similar strategy was used to design C-terminally GFP–HA2-tagged linear poly-SUMOs in the copper-inducible Ycplac22 vector for expression in S. cerevisiae.”\nas §2"}, "di-SUMO2–GFP–HA2": {"tested_on": "di-SUMO2–GFP–HA2", "experiment": "Proteasomal targeting of di-SUMO2–GFP–HA2 by RNF4 in yeast", "format": "cell-based, S. cerevisiae", "excerpt": "as §1, with “motif.” for “motif. A similar strategy was used to design C-terminally GFP–HA2-tagged linear poly-SUMOs in the copper-inducible Ycplac22 vector for expression in S. cerevisiae.”\nas §2"}, "PML-NBs in HeLa cells": {"tested_on": "PML-NBs in HeLa cells", "experiment": "Disruption of PML-NBs by overexpression of RNF4 in HeLa cells", "format": "cell-based", "settings": "HeLa cells transfected with HA-tagged full-length RNF4; automatic image analysis, 30 to 60 cells per condition; GFP control plasmid 12 PML-NBs, untreated average 15", "experimental": "HeLa B-cells were grown on coverslips and fixed in PBS with 3% paraformaldehyde. After permeabilization in PBS with 0.2% saponin (Sigma–Aldrich), cells were blocked in PBS, 3% BSA and 0.2% saponin. Primary and Alexa Fluor®-labelled secondary antibodies (Invitrogen) were applied in blocking buffer. Coverslips were embedded in ProLong® Gold Antifade (Invitrogen) and examined using a Zeiss Axioplan2 fluorescence microscope. Proteins and epitope tags were detected with the following antibodies against PML (A167 and A168; Bethyl), HA (haemagglutinin) (3F10; Roche, 16B12; Covance) and CDC11 (SC-7170; Santa Cruz Biotechnology). The secondary antibodies were labelled with Alexa Fluor® 546, Alexa Fluor® 647 or Alexa Fluor® 670 (Invitrogen), or IRDye800 (Rockland). For quantification of PML-NBs, cells were acquired using a Zeiss Meta 510 Confocal microscope, 63× objective NA (numerical aperture) 1.4 and appropriate laser and filter settings. Z-stacks were taken according to Nyquist criteria. Microscopic pictures were analysed with Volocity 6.2 Cellular Imaging & Analysis Software (PerkinElmer). Transfected cells were automatically identified within the 546 nm channel and the amount of PML-NBs (647 nm channel) that were localized within the nuclei of transfected cells were automatically counted."}}, "data": [{"molecule": "RNF4 FL: full-length human RNF4 (RING finger protein 4); FLAG-tagged in yeast, HA-tagged in HeLa cells (protein, left off: GST, end not stated, cleaved, full-length human RNF4 (RING finger protein 4); FLAG-tagged in yeast, HA-tagged in HeLa cells) MSTRKRRGGAINSRQAQKRTREATSTPEISLEAEPIELVETAGDEIVDLTCESLEPVVVDLTHNDSVVIVDERRRPRRNARRLPQDHADSCVVSSDDEELSRDRDVYVTTHTPRNARDEGATGLRPSGTVSCPICMDGYSEIVQNGRLIVSTECGHVFCSQCLRDSLKNANTCPTCRKKINHKRYHPIYI", "values": [{"measurement": "binding to SUMO chains compared with the monomeric SIM domain", "setting": "[1]", "value": "stronger as compared with the monomeric SIM domain, especially for short SUMO chains"}, {"measurement": "level of tetra-SUMO2–GFP–HA reporter (control without RNF4 = 100%)", "setting": "tetra-SUMO2–GFP–HA2", "value": 43, "unit": "%"}, {"measurement": "level of tri-SUMO2–GFP–HA reporter (control without RNF4 = 100%)", "setting": "tri-SUMO2–GFP–HA2", "value": 45, "unit": "%"}, {"measurement": "level of di-SUMO2–GFP–HA reporter (control without RNF4 = 100%)", "setting": "di-SUMO2–GFP–HA2; yeast coexpressing RNF4, Western blot, normalized to CDC11", "value": "approximately 55%"}, {"measurement": "targeting of di-SUMO2 in yeast", "setting": "di-SUMO2–GFP–HA2; yeast coexpressing wt RNF4", "value": "efficiently targets di-SUMO2 in yeast"}, {"measurement": "number of PML-NBs after transfection", "setting": "PML-NBs in HeLa cells", "value": "approximately five"}]}]}
